Target: T1, biotin labeled hRAGE-Fc (human, UniProt Q15109 24-344, limits assumed, biotin labeled (site not stated))
T1 construct: Biotinylated in selections and HTRF; also called Biotin-labeled RAGE-Fc; biotinylated RAGE-FC; not shown: Fc part, not described
Experiment: HTRF competition on biotinylated hRAGE-Fc; scFv titrated; competitor Eu-cryptate-labeled parental XT-M4 antibody

T1 sequence (Q15109 24-344 limits assumed): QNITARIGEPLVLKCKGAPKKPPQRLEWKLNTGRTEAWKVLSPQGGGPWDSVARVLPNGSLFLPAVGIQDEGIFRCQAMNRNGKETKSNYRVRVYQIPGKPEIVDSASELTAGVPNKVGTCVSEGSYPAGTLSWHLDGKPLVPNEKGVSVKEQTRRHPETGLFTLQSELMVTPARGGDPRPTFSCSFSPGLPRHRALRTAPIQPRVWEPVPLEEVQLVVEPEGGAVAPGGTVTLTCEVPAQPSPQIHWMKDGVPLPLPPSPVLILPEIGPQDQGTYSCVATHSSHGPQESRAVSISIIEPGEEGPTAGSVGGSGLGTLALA

B1: 3B4 scFv (scFv)
chain: DIQMTQSPSSLSASVGDRVTITCRASQDVGIYVNWFQQKPGKAPRRLIYRATNLADGVPSRFSGSRSGTDFTLTISSLQPEDFATYYCLEFDEHPLTFGGGTKVEIKDGGGSGGGGSGGGGSSEVQLVESGGGLVQPGGSLRLSCAASGFTFNNYWMTWVRQAPGKGLEWVASIDNSGDNTYYPDSVKDRFTISRDNAKNSLYLQMNSLRAEDTAVYYCARGGDIREGLRYWGQGTLVTVSS
  IC50: 1.31 nM

B2: 6D5 scFv (scFv)
chain: DIQMTQSPSSLSASVGDRVTITCRASQDVGIYVNWFQQKPGKAPRRLIYRATNLADGVPSRFSGSRSGTDFTLTISSLQPEDFATYYCLEFDEHPLTFGGGTKVEIKDGGGSGGGGSGGGGSSEVQLVESGGGLVQPGGSLRLSCAASGFTFNNYWMTWVRQAPGKGLEWVASIDNSGDNTYYPDSVKDRFTISRDNAKNSLYLQMNSLRAEDTAVYYCARGGDIKVSLDQWGQGTLVTVSS
  IC50: 1.46 nM
